From patent US20150086555A1

Legend:
Conditions in all cases: remark: other sources report otherwise
[1] = molecular target: recombinant homotrimeric HA A/California/4/09 H1N1 (Influenza A virus A/California/04/2009(H1N1)); experiment: protein microarray, purified IgG, trimeric HA
[2] = molecular target: recombinant homotrimeric HA A/northern shoveler/California/HKWF115/07 H6N4 (Influenza A virus A/northern shoveler/California/HKWF115/2007(H6N1)); experiment: protein microarray, purified IgG, trimeric HA
[3] = molecular target: recombinant homotrimeric HA A/Wisconsin/67/05 H3N2 (Influenza A virus A/Wisconsin/67/2005(H3N2)); experiment: protein microarray, purified IgG, trimeric HA
[4] = molecular target: recombinant homotrimeric HA A/Anhui/1/05 H5N1 (Influenza A virus A/Anhui/1/2005(H5N1)); experiment: protein microarray, purified IgG, trimeric HA
[5] = molecular target: recombinant homotrimeric HA A/Egypt/3300-NAMRU3/08 H5N1 (Influenza A virus A/Egypt/3300-NAMRU3/2008(H5N1)); experiment: protein microarray, purified IgG, trimeric HA
[6] = molecular target: recombinant homotrimeric HA A/Hong Kong/156/97 H5N1 (Influenza A virus A/Hong Kong/156/97 (H5N1)); experiment: protein microarray, purified IgG, trimeric HA
[7] = molecular target: recombinant homotrimeric HA A/Hong Kong/2108/03 H9N2 (Influenza A virus A/HK/2108/2003(H9N2)); experiment: protein microarray, purified IgG, trimeric HA
[8] = molecular target: recombinant homotrimeric HA A/Japan/305/57 H2N2 (Influenza A virus A/Japan/305/1957(H2N2)); experiment: protein microarray, purified IgG, trimeric HA
[9] = molecular target: recombinant homotrimeric HA A/South Carolina/1/18 H1N1 (Influenza A virus A/South Carolina/1/18 (H1N1)); experiment: protein microarray, purified IgG, trimeric HA
[10] = molecular target: recombinant homotrimeric HA A/chicken/Vietnam/NCVD-016/08 H5N1 (Influenza A virus A/chicken/Vietnam/NCVD-016/2008(H5N1)); experiment: protein microarray, purified IgG, trimeric HA
[11] = molecular target: recombinant homotrimeric HA A/Indonesia/5/05 H5N1 (Influenza A virus A/Indonesia/5/2005(H5N1)); experiment: protein microarray, purified IgG, trimeric HA
[12] = molecular target: recombinant homotrimeric HA A/Vietnam/1203/04 H5N1 (Influenza A virus A/VietNam/1203/2004(H5N1)); experiment: protein microarray, purified IgG, trimeric HA
[13] = molecular target: recombinant homotrimeric HA A/Netherlands/219/03 H7N7 (Influenza A virus A/Netherlands/219/03(H7N7)); experiment: protein microarray, purified IgG, trimeric HA
[14] = molecular target: recombinant homotrimeric HA A/Solomon Islands/3/06 H1N1 (Influenza A virus A/Solomon Islands/3/2006(H1N1)); experiment: protein microarray, purified IgG, trimeric HA
[15] = molecular target: recombinant soluble homotrimeric HA of A/chicken/Vietnam/NCVD-016/08 (H5N1) (Influenza A virus A/chicken/Vietnam/NCVD-016/2008(H5N1)); experiment: HA microarray, BCC supernatant
[16] = molecular target: recombinant soluble homotrimeric HA of A/California/4/09 (H1N1) (Influenza A virus A/California/04/2009(H1N1)); experiment: HA microarray, BCC supernatant
[17] = molecular target: recombinant soluble homotrimeric HA of A/Wisconsin/67/05 (H3N2) (Influenza A virus A/Wisconsin/67/2005(H3N2)); experiment: HA microarray, BCC supernatant
[18] = molecular target: recombinant soluble homotrimeric HA of A/northern shoveler/California/HKWF115/07 (H6) (Influenza A virus A/northern shoveler/California/HKWF115/2007(H6N1)); experiment: HA microarray, BCC supernatant
[19] = molecular target: recombinant soluble homotrimeric HA of A/Netherlands/219/03 (H7N7) (Influenza A virus A/Netherlands/219/03(H7N7)); experiment: HA microarray, BCC supernatant
[20] = molecular target: recombinant soluble homotrimeric HA of A/Vietnam/1203/04 (H5N1) (Influenza A virus A/VietNam/1203/2004(H5N1)); experiment: HA microarray, BCC supernatant
[21] = molecular target: recombinant soluble homotrimeric HA of A/Hong Kong/2108/03 (H9N2) (Influenza A virus A/HK/2108/2003(H9N2)); experiment: HA microarray, BCC supernatant
[22] = molecular target: recombinant soluble homotrimeric HA of A/Indonesia/5/05 (H5N1) (Influenza A virus A/Indonesia/5/2005(H5N1)); experiment: HA microarray, BCC supernatant
[23] = molecular target: recombinant soluble homotrimeric HA of A/Japan/305/57 (H2N2) (Influenza A virus A/Japan/305/1957(H2N2)); experiment: HA microarray, BCC supernatant
[24] = molecular target: recombinant soluble homotrimeric HA of A/Solomon Islands/3/06 (H1N1) (Influenza A virus A/Solomon Islands/3/2006(H1N1)); experiment: HA microarray, BCC supernatant
[25] = molecular target: recombinant soluble homotrimeric HA of A/duck/Yangzhou/02/05 (H8N4) (Influenza A virus A/duck/Yangzhou/02/2005(H8N4)); experiment: HA microarray, BCC supernatant
[26] = molecular target: recombinant soluble homotrimeric HA of A/swine/Ontario/01911-2/99 (H4N6) (Influenza A virus A/Swine/Ontario/01911-2/99 (H4N6)); experiment: HA microarray, BCC supernatant
[27] = molecular target: recombinant soluble homotrimeric HA of A/Anhui/1/05 (H5N1) (Influenza A virus A/Anhui/1/2005(H5N1)); experiment: HA microarray, BCC supernatant
[28] = molecular target: recombinant homotrimeric HA A/Hong Kong/1073/99 H9N2 (Influenza A virus A/Hong Kong/1073/99 (H9N2)); experiment: protein microarray, purified IgG, trimeric HA

Binder	Trimeric HA Binding: RLU [1]	Trimeric HA Binding: RLU [2]	Trimeric HA Binding: RLU [3]	Trimeric HA Binding: RLU [4]	Trimeric HA Binding: RLU [5]	Trimeric HA Binding: RLU [6]	Trimeric HA Binding: RLU [8]	Trimeric HA Binding: RLU [9]	Trimeric HA Binding: RLU [10]	Trimeric HA Binding: RLU [12]	Trimeric HA Binding: RLU [13]	Trimeric HA Binding: RLU [15]	Trimeric HA Binding: RLU [16]	Trimeric HA Binding: RLU [17]	Trimeric HA Binding: RLU [18]	Trimeric HA Binding: RLU [19]	Trimeric HA Binding: RLU [20]	Trimeric HA Binding: RLU [23]	Trimeric HA Binding: RLU [25]	Trimeric HA Binding: RLU [26]	also measured
TCN-540 (5060_F05) (antibody, V domains shown) VH: QVQLVQSGGGVVQPGRSLRLSCAASGFTFSSYAMHWVRQAPGKGLEWVAIISYDGNDQYYTDSVKGRFTISRDSSKVYLQMHRLRPEDTAVYYCAKEFETSGYFHGSFDYWGQGILVTVSS VL: QSALTQPASVSGSPGQSITISCTGTSSDVGGYNYVSWYQQHPGKAPKLLIYEVTNWPSGVSNRFSGSKSGNTASLTISGLQAEDEADYYCSSYAGSSTWVFGGGTRVTVL	266 RLU	76 RLU	6900 RLU	769 RLU	860 RLU	465 RLU	29000 RLU	139 RLU	338 RLU	830 RLU	191 RLU	70 RLU	57 RLU	728 RLU	131 RLU	381 RLU	63 RLU	2970 RLU	117 RLU	178 RLU	Trimeric HA Binding: RLU [7]: 164 RLU; Trimeric HA Binding: RLU [11]: 139 RLU; Trimeric HA Binding: RLU [14]: 9360 RLU; Trimeric HA Binding: RLU [21]: 22 RLU; Trimeric HA Binding: RLU [22]: 31 RLU; Trimeric HA Binding: RLU [24]: 64 RLU; Trimeric HA Binding: RLU [27]: 25 RLU
TCN-536 (5095_N01) (antibody, V domains shown) VH: QVQLQQWGAGLLKPSETLSLTCAVYGGSFSVSGYYWSWIRQPPGRGLEWIGEISHGGSTNYNPSLKSRVTISVDTTKNQFSLRLSSVTAADTAVYYCARGTDPDTEVYCRVGNCAAFDYWGQGSLVTVSS VL: EIILAQSPGTLSLSPGERATLSCRASQFVSTRSLAWYQQRPGQAPRLLIYGASSRATGIPDRFSGSGSGTDFTLTISRLEPEDFAVYYCQHYGYSPRYAFGQGSKVEIK	298 RLU	114 RLU	24700 RLU	8860 RLU	4710 RLU	732 RLU	771 RLU	160 RLU	419 RLU	749 RLU	186 RLU	287 RLU	151 RLU	35000 RLU	2210 RLU	976 RLU	146 RLU	121 RLU	436 RLU	79 RLU	Trimeric HA Binding: RLU [21]: 1570 RLU; Trimeric HA Binding: RLU [27]: 543 RLU
TCN-553 (5261_C18) (antibody, V domains shown) VH: QVQVVQSGTEVKKPGSSVKVSCQTSGGRFMSYAITWVRQAPGQGLEWMGGIVPVFGTANYAQKFQGRVTITTDDSTRTAYMELSSLRSEDTAVYYCGFRYGSGYGFDSWGQGTLVTVSS VL: EIVLTQSPGTLSLSPGERATLSCRASQSVSSSYLAWYQKKPGQAPRLLIYGASTRATGIPDRFTGSGSGTDFTLSISRLEPEDFAVYYCQHFGTSVFTFGGGTKVEIK	25100 RLU	20200 RLU	197 RLU	9030 RLU	24600 RLU	24000 RLU	25700 RLU	20600 RLU	12400 RLU	27200 RLU	499 RLU	24200 RLU	20300 RLU	20000 RLU	21700 RLU	1840 RLU	6560 RLU	25500 RLU	28000 RLU	2580 RLU	Trimeric HA Binding: RLU [7]: 172 RLU; Trimeric HA Binding: RLU [28]: 6690 RLU; Trimeric HA Binding: RLU [11]: 26000 RLU; Trimeric HA Binding: RLU [14]: 24600 RLU; Trimeric HA Binding: RLU [22]: 24400 RLU; Trimeric HA Binding: RLU [24]: 16300 RLU; Trimeric HA Binding: RLU [27]: 12600 RLU
